These results are taken from article PMC6602965.

For assay [1], the target named is AhlB (Aeromonas hydrophila strain AL09-71). Briefly: crystal structure.
Assay [2] concerns the target AhlC (Aeromonas hydrophila strain AL09-71). Kind of assay: crystal structure; soluble AhlC, two crystal forms (P6(5)22, 2.35 A; P2(1), 2.6 A).
Assay [3] has the same target.
For assay [4] the target is unchanged. Briefly: SEC; gel filtration of AhlC alone (Supplementary Fig. 2). (SEC sorts molecules by how far they enter the pores of the column.)
For assay [5] the target is unchanged. Briefly: cross-linking; 1.4 mg/ml soluble AhlC with glutaraldehyde (15 min, room temperature), then EDC in 0.1 M MES pH 6 (30 min); SDS-PAGE.
Assay [6] has as its target AhlB (Aeromonas hydrophila strain AL09-71).

The term stoichiometry N denotes a count of units in the complex or per binding partner. For AhlB (natural protein), the stoichiometry N in assay [1] stood at 10.
As to AhlC (natural protein), the values for the stoichiometry N in assay [2], in assay [4] and in assay [5] were 4, 4 and 2, respectively. Moreover, the haemolysis with glutaraldehyde-cross-linked AhlC (mixture of monomeric and dimeric AhlC), reduction of lysis in assay [3] was found to be 50 % reduction. Further, the haemolysis of horse erythrocytes by a 1:1 AhlB/AhlC mixture, 1 h, against lysis by osmotic shock with water in assay [6] was 50%.
